Key:
EGFR = biological target: T1, EGFR (Mus musculus, UniProt Q01279); experiment: EGFR pulled down with mLeg1-Re from liver after intragastric administration (co-immunoprecipitation); type: in vivo; details: liver of mLeg1Δ/Δ mice, two hours after the intragastric administration
T1 construct: from tissue; host or cells: liver of mLeg1^Δ/Δ mice
Description: (§1) In order to further verify this hypothesis, the inventors administered the mLeg1-Re protein to the mLeg1^Δ/Δ mice by intragastric administration, and detected, by the method of co-immunoprecipitation, whether the mLeg1-Re protein could reach the liver and bind to EGFR in the liver.

[1] = tested on: Akt phosphorylation of the HepG2 cells; experiment: Akt phosphorylation of HepG2 cells incubated with recombinant mLeg1-Re, alone or with wild-type mLeg1; type: cell-based, human
Experimental: 23.3 The extracted recombinant protein mLeg1-Re and the wild type mLeg1 protein were used to incubate the HepG2 cells, and then the Akt phosphorylation level of the HepG2 cell was detected. As to the details, reference can be made to step 18.2.2.
The partially purified wild-type mLeg1 protein (50 ng) was mixed with excess mLeg1-Re protein (500 ng) for 10 minutes, and then used to incubate HepG2 cell for 10 minutes, and then the Akt phosphorylation level was detected in these cells. […] It is highly likely attributed to the fact that the mLeg1-Re protein is also capable of competitively binding to the EGFR, thereby blocking the ability of the wild-type mLeg1 to bind to the EGFR and activate downstream Akt.

[2] = mLeg1-Re protein in liver of mLeg1Δ/Δ mice after intragastric administration (co-immunoprecipitation); type: in vivo, mouse; details: two hours after the intragastric administration
Description: as §1

[3] = Body weight increase of wild type mice on high-fat diet with intragastric mLeg1-Re; type: in vivo, mouse; details: 20 μg intragastric every day, one month
Experimental: 23.4 10-weeks old wild type mice having the similar body weight (t1) were randomly divided into 3 groups with 3 to 4 mice in each group. The wild type mice were fed with high-fat diet and intragrastric administration with 20 μg of mLeg1-Re protein every day, which served as mLeg1-Re administration experimental group. Another group of wild type mice of the same age were fed with the same high-fat diet and intragrastric administration with the same amount of bovine serum albumin (BSA) every day, which served as BSA administration control group. The left group of wild type mice at the same age were fed with the same standard chow diet, which served as another control group. One month later, the body weight (t2) of these mice were measured, and the results were represented by increased body weight […]. The experiment was repeated twice, and the final body weight changes (i.e., increased body weight) were averaged.

B1: mLeg1-Re protein: modification-defective recombinant mLeg1 protein expressed in an Escherichia coli expression system (protein)
chain: EVSDSSDPYPPLWEDSPEQLSDYMMEDGNYIINPWVYTDRMGMYRILLEETAMYFAKYGPENEQNLLWGLPLQFGWQYQSGRLADPTGMTDCGNELNESLCVSVDSWWADINYYLSVIPFLAAVDSGITGISPNQITILPPPKDQMRFCYNVSDCQSAVPGTMNRWRDFFQYMQLNSSDFDGLLNYLWEAHASSLDYPTSAFGDRYNFYSEKEANFEENWAIAVNYLAAARLPTTQNRTYSFQRGLPPRVLVDTDIAPFIPDFTPLQNEVLVSLKLLGDTDRNSGSLSLTLWENLMSTKLARTLFLKAFEEFLATSS
modifications: left off: small tags and cut ends
notes: modification-defective recombinant mLeg1 protein expressed in an Escherichia coli expression system
EGFR in the protein pulled down by the mLeg1 antibody (EGFR): significant EGFR protein level could be detected
ability to induce Akt phosphorylation ([1]; HepG2 incubated with mLeg1-Re alone): lost the ability to induce Akt phosphorylation
ability of the mLeg1 protein to activate Akt ([1]; HepG2 incubated with mLeg1-Re for 10 minutes first, then mLeg1 added): completely inhibited
inhibition of mLeg1-induced Akt phosphorylation ([1]; mLeg1 (50 ng) mixed with excess mLeg1-Re (500 ng) for 10 minutes, then HepG2 10 minutes): cannot inhibit the functions of the mLeg1 protein
mLeg1-Re protein in the liver [2]: could be detected in the liver
body weight increase compared with BSA control group [3]: significantly lower
body weight increase compared with mice fed standard chow diet [3]: almost the same as that of the mice fed with standard chow diet
